Test results from PMC8750329.

Key:
[1] = target: P. clarkii crustacyanin A2 (PcCRA2) (Procambarus clarkii); assay: SEC + other: SDS-PAGE; fraction F2, 1 mg/mL, TSK-gel G3000SWxl, 20 mM sodium phosphate pH 7.0, 0.7 mL/min, calibrated with a protein standard mix; native mass about 43 kDa against a single 21 kDa band on SDS-PAGE
[2] = target: P. clarkii crustacyanin A2 (PcCRA2) (Procambarus clarkii); assay: SEC + other: SDS-PAGE; fraction F1, 1 mg/mL, TSK-gel G3000SWxl, 20 mM sodium phosphate pH 7.0, 0.7 mL/min, calibrated with a protein standard mix; native mass about 170 kDa against a single 21 kDa band on SDS-PAGE

Substance: P. clarkii crustacyanin A2 (PcCRA2) (natural protein)
- stoichiometry N [1]: 2
- stoichiometry N [2]: 8
